T1: IL1RL2 (UniProt Q9HB29 20-335, limits assumed)
T1 construct: Soluble analyte of the SPR runs
T1 sequence (looked up): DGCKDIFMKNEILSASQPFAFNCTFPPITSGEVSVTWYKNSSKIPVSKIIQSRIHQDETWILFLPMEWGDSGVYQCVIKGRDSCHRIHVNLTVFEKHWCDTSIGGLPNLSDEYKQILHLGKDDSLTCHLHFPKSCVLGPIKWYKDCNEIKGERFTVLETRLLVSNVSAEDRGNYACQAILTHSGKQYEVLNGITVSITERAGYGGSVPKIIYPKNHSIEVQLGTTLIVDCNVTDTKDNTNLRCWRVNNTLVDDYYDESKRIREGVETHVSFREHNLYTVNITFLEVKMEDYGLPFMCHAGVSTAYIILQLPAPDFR

T2: IL1RL2 over-expressed on Expi293 cells (UniProt Q9HB29 20-575, limits assumed)
T2 construct: whole, on cells; Target of the flow cytometry assay; MFI ratio is over-expressing cells over parent cells
T2 sequence (looked up): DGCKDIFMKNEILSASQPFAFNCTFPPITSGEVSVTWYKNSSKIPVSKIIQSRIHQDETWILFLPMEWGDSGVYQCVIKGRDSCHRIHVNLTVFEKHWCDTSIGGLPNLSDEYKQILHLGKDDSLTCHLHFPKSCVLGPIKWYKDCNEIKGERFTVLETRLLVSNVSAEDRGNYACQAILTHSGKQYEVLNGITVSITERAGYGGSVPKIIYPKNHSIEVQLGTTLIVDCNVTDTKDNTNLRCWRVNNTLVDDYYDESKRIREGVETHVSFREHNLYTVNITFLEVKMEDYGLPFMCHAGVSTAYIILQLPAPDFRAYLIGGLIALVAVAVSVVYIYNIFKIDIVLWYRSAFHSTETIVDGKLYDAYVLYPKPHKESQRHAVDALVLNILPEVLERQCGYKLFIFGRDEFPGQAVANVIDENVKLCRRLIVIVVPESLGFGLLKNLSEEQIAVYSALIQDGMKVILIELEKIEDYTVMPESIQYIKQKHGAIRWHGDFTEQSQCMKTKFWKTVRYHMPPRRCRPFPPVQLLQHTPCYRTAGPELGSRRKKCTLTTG

B1: TSLP-3 (VHH)
VHH: EVQLVESGGGLVQPGGSLRLSCAASGRIFSTYFMGWFRQAPGKERELVSAIFSDGSTYYADSVKGRFTISADNSKNTAYLQMNSLKPEDTAVYYCALDLSTVRWGQGTLVTVSS
notes: VHH-Fc (IgG2 Fc); not shown: IgG2 Fc of the VHH-Fc format
B2: TSLP-27 (VHH)
VHH: EVQLVESGGGLVQPGGSLRLSCAASGSTFSDRAMGWFRQAPGKERELVSAIFSDGSTLYADSVKGRFTISADNSKNTAYLQMNSLKPEDTAVYYCASDVGMDVWGQGTLVTVSS
notes: as for B1
B3: TSLP-21 (VHH)
VHH: EVQLVESGGGLVQPGGSLRLSCAASGNIFSRYIMGWFRQAPGKERELVSAIFSDGSTLYADSVKGRFTISADNSKNTAYLQMNSLKPEDTAVYYCAKGGYSSGWFDYWGQGTLVTVSS
notes: as for B1
B4: TSLP-24 (VHH)
VHH: EVQLVESGGGLVQPGGSLRLSCAASGGIFSINDIGWFRQAPGKEREFVAALSWIIGSGVYTYYADSVKGRFTISADNSKNTAYLQMNSLKPEDTAVYYCANEYGWGQGTLVTVSS
notes: as for B1
B5: TSLP-28 (VHH)
VHH: EVQLVESGGGLVQPGGSLRLSCAASGFTFDDYEMGWFRQAPGKEREFVGSIGCDGSTLYADSVKGRFTISADNSKNTAYLQMNSLKPEDTAVYYCTTDCDDHCGWGQGTLVTVSS
notes: as for B1
B6: TSLP-31 (VHH)
VHH: EVQLVESGGGLVQPGGSLRLSCAASGNIFANNIMGWFRQAPGKERELVSAIFSDGSTYYADSVKGRFTISADNSKNTAYLQMNSLKPEDTAVYYCARDDIVGAWSLDCWGQGPLMTVSS
notes: as for B1
B7: TSLP-34 (VHH)
VHH: EVQLVESGGGLVQPGGSLRLSCAASGHIFANNIMGWFRQAPGKERELVSAIFSDGSTYYADSVKGRFTISADNSKNTAYLQMNSLKPEDTAVYYCARDAIVGAASLDYWGQGTLVTVSS
notes: as for B1
B8: TSLP-33 (VHH)
VHH: EVQLVESGGGLVQPGGSLRLSCAASGFSLDYYGMGWFRQAPGKEREFVAAIHWNGDSTLYADSVKGRFTIIADNSKNTAYLQMNSLKPEDTAVYYCARGFSGWFPFDYWGQGTLVTVSS
notes: as for B1
B9: TSLP-41 (VHH)
VHH: EVQLVESGGGLVQPGGSLRLSCAASGRTFSAHSVYTMGWFRQAPGKEREWVSAIFSDGDTYYADSVKGRFTISADNSKNTAYLQMNSLKPEDTAVYYCAIDEGMDYDGNFYDWGQGTLVTVSS
notes: as for B1
B10: TSLP-120 (antibody, V domains shown)
VH: QVQLVQSGAEVKKPGSSVKVSCKASGGTFSTYAISWVRQAPGQGLEWMGGIISINYAQKFQGRVTITADESTSTAYMELSSLRSEDTAVYYCAWGAKYALDSWGQGTLVTVSS
VL: DIQMTQSPSSLSASVGDRVTITCRASQTIGTYLNWYQQKPGKAPKLLIYSASSLQSGVPSRFSGSGSGTDFTLTISSLQPEDFATYYCQQTDGNPPTFGQGTKVEIK
B11: TSLP-6 (VHH)
VHH: EVQLVESGGGLVQPGGSLRLSCAASGMTFSSYVMGWFRQAPGKEREFVGEIILSKGFTYYADSVKGRFTISADNSKNTAYLQMNSLKPEDTAVYYCASGPGYYDSSAYYLYAFDIWGQGTLVTVSS
notes: as for B1
B12: TSLP-7 (VHH)
VHH: EVQLVESGGGLVQPGGSLRLSCAASGLTFGTHVMGWFRQAPGKERELVTAINPAALTTYYADSVKGRFTISADNSKNTAYLQMNSLKPEDTAVYYCARDFWSAGDSWGQGTLVTVSS
notes: as for B1
B13: TSLP-11 (VHH)
VHH: EVQLVESGGGLVQPGGSLRLSCAASGFTFDDSDMGWFRQAPGKEREFVGAISWSGDSTYYKYYADSVKGRFTISADNSKNTAYLQMNSLKPEDTAVYYCANQYGWGQGTLVTVSS
notes: as for B1
B14: IL1RL2-23 (VHH)
VHH: EVQLVESGGGLVQPGGSLRLSCAASGPTFSTYAMGWFRQAPGKEREFVAAISWSGANTYYADSVKGRFTISADNSKNTAYLQMNSLKPEDTAVYYCAVSQPLNYYTYYDARRYDWGQGTLVTVSS
notes: VHH-Fc based on IgG2 Fc
B15: IL1RL2-29 (VHH)
VHH: EVQLVESGGGLVQPGGSLRLSCAASGGTFSAYTMGWFRQAPGKEREFVAAISWSGGSTYYADSVKGRFTISADNSKNTAYLQMNSLKPEDTAVYYCAVSQPLNYYTYYDARRYDWGQGTLVTVSS
notes: VHH-Fc based on IgG2 Fc
B16: IL1RL2-24 (VHH)
VHH: EVQLVESGGGLVQPGGSLRLSCAASGRTFSTYDMGWFRQAPGKERELVASIVWIGGRTYYADSVKGRFTISADNSKNTAYLQMNSLKPEDTAVYYCADVNGDWGQGTLVTVSS
notes: VHH-Fc based on IgG2 Fc
B17: IL1RL2-30 (VHH)
VHH: EVQLVESGGGLVQPGGSLRLSCAASGGTLRGFDIGWFRQAPGKEREFVAAVTWSGGSTNYADSVKGRFTISADNSKNTAYLQMNSLKPEDTAVYYCADVNGDWGQGTLVTVSS
notes: VHH-Fc based on IgG2 Fc
B18: TSLP-15 (VHH)
VHH: EVQLVESGGGLVQPGGSLRLSCAASGFILDDYAMGWFRQAPGKEREFVATIAGGYTYYADSVKGRFTISADNSKNTAYLQMNSLKPEDTAVYYCPVFDGYTRIHWGQGTLVTVSS
notes: as for B1
B19: TSLP-18 (VHH)
VHH: EVQLVESGGGLVQPGGSLRLSCAASGNIFTRNIMCWFRQAPGKEREGVSCISTGDGSTYYADSVKGRFTISADNSKNTAYLQMNSLKPEDTAVYYCAADSETSGNWVWGQGTLVTVSS
notes: as for B1
B20: TSLP-20 (VHH)
VHH: EVQLVESGGGLVQPGGSLRLSCAASGFKLGYYAMGWFRQAPGKEREGVATIAGGTTYYADSVKGRFTISADNSKNTAYLQMNSLKPEDTAVYYCAAIGWRWGQGTLVTVSS
notes: as for B1

How the values were obtained:
TSLP = molecular target: T3, TSLP (UniProt Q969D9 29-159); experiment: SPR, Carterra LSA, antibody amine-coupled, 1:1 model
T3 construct: Soluble analyte of the SPR assay
Protocol: (§1) SPR experiments were performed on a Carterra LSA SPR biosensor equipped with a HC30M chip at 25° C. in HBS-TE. Antibodies were diluted to 10 μg/mL and amine-coupled to the sensor chip by EDC/NHS activation, followed by ethanolamine HCl quenching. Increasing concentrations of analyte were flowed over the sensor chip in HBS-TE with 0.5 mg/mL BSA with 5-minute association and 15-minute dissociation. Following each injection cycle the surface was regenerated with 2× 30-second injections of IgG elution buffer (Thermo). Data were analyzed in Carterra's Kinetics Tool software with 1:1 binding model.

[1] = molecular target: T4, TSLP on over-expressing Expi293 cells (UniProt Q969D9 29-159, limits assumed); experiment: flow cytometry titration on TSLP over-expressing Expi293 cells
T4 construct: whole, on cells; Target of the flow cytometry assay; also called cytokine over-expressing Expi293 cells
Protocol: (§2) All incubations and washes were in buffer containing PBS+1% BSA. MFI Ratio is defined by the mean fluorescence intensity (MFI) of the cytokine over-expressing Expi293 cell over the Expi293 parent cell. […] EC50 was calculated in GraphPad Prism.

[2] = molecular target: T4, TSLP on over-expressing Expi293 cells; experiment: flow cytometry, 100 nM, TSLP over-expressing Expi293 over parent cells
Protocol: as §2

IL1RL2 = molecular target: T1, IL1RL2; experiment: SPR (Carterra LSA), antibody immobilised, 1:1 model
Protocol: as §1

[3] = molecular target: T2, IL1RL2 over-expressed on Expi293 cells; experiment: flow cytometry, over-expressing Expi293 vs parent cells, 100 nM antibody;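 further: ratio is mean fluorescence intensity on over-expressing Expi293 cells divided by that measured on parental Expi293 cells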
Protocol: as §2

Row | Binder | Kd (TSLP) [nM] | koff (TSLP) [s⁻¹] | kon (TSLP) [M⁻¹ s⁻¹] | EC50 [1] [nM] | 100 nM (MFI Ratio) [2] [MFI ratio] | Kd (IL1RL2) [nM] | koff (IL1RL2) [s⁻¹] | kon (IL1RL2) [M⁻¹ s⁻¹] | 100 nM FACS (MFI Ratio) [3]
1 | B1 | 19.1 | 0.00114 | 59900 | 0.37 | 80.1 | – | – | – | –
2 | B2 | – | – | – | – | 0.6 | – | – | – | –
3 | B3 | 10.6 | 0.00113 | 106000 | – | 0.7 | – | – | – | –
4 | B4 | 10.2 | 0.000445 | 43600 | – | 1.3 | – | – | – | –
5 | B5 | – | – | – | – | 0.7 | – | – | – | –
6 | B6 | – | – | – | – | 18.4 | – | – | – | –
7 | B7 | – | – | – | – | 16.5 | – | – | – | –
8 | B8 | – | – | – | – | 21 | – | – | – | –
9 | B9 | 10.8 | 0.00177 | 164000 | – | 12.3 | – | – | – | –
10 | B10 | 0.223 | 0.000181 | 809000 | – | 21.2 | – | – | – | –
11 | B11 | 19.4 | 0.000672 | 34700 | – | 178 | – | – | – | –
12 | B12 | 5.12 | 0.000351 | 68500 | – | 1.6 | – | – | – | –
13 | B13 | 9.67 | 0.000433 | 44700 | – | 157 | – | – | – | –
14 | B14 | – | – | – | – | – | 8.13 | 0.000124 | 15300 | 13.9
15 | B15 | – | – | – | – | – | 10.5 | 0.000279 | 26500 | 5.46
16 | B16 | – | – | – | – | – | ≤ 0.103 | ≤ 1e-05 | 97200 | 18.1
17 | B17 | – | – | – | – | – | 2.14 | 0.000194 | 90800 | 10.2
18 | B18 | – | – | – | – | 1.5 | – | – | – | –
19 | B19 | 22.3 | 0.00178 | 79700 | – | 5.1 | – | – | – | –
20 | B20 | 27.7 | 0.00209 | 75300 | – | 2.5 | – | – | – | –

From patent US20230265179A1 (TWIST BIOSCIENCE, published 2023)
